Target: glucocorticoid receptor (GR) (UniProt P04150 1-777)
Test: EMSA

Sequence of glucocorticoid receptor (GR) (P04150 whole entry): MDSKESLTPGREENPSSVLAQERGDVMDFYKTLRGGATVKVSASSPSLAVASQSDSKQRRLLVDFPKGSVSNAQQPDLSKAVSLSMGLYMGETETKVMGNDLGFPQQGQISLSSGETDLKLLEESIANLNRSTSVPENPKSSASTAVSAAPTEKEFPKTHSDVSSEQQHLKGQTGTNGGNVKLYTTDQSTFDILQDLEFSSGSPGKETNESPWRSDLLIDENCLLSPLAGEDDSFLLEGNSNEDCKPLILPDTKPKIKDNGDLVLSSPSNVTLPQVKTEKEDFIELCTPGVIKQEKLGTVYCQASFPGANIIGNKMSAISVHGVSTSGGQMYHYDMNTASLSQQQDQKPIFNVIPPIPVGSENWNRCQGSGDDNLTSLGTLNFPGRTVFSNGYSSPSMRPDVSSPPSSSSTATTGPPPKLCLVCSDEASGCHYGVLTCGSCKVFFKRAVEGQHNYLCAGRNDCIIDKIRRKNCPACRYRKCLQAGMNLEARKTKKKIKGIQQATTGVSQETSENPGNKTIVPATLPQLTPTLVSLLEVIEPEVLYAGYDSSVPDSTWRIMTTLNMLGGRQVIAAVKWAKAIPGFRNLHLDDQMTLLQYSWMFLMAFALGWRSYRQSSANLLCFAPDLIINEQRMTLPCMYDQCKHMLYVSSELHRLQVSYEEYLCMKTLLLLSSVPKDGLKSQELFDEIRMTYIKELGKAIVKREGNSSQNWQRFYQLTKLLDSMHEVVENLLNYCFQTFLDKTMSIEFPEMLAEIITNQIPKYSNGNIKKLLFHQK

Row | Binder | binding result
1 | GRE (dsDNA) DNA 1: CTAGGCTGTACAGGATGTTCTGCCTAG DNA 2: CTAGGCAGAACATCCTGTACAGCCTAG | binds
2 | AAV2 D-sequence (D) (dsDNA) DNA 1: CTCCATCACTAGGGGTTCCT DNA 2: AGGAACCCCTAGTGATGGAG | binds
